Reference: paper PMC5801413
pKd: −log10 of the molar value.

Tests used:
[1] = molecular target: Human glu-plasminogen; experiment: ELISA; conditions: 5 μg/ml immobilized CbiA protein, 10 μg/ml plasminogen, polyclonal antibody 1:1,000, read off a plot
[2] = molecular target: His6-tagged CbiA of B. miyamotoi (B. miyamotoi); experiment: ELISA; proteins (5 μg/ml) immobilised, plasminogen in the presence of increasing concentrations of NaBr; binding without NaBr set to 100%
[3] = molecular target: His6-tagged CbiA of B. miyamotoi (B. miyamotoi); experiment: ELISA; CbiA (5 μg/ml) immobilised, increasing concentrations of plasminogen; non-linear regression, one-site specific binding model; apparent dissociation constant
[4] = molecular target: His6-tagged CbiA of B. miyamotoi (B. miyamotoi); experiment: ELISA; proteins (5 μg/ml) immobilised, plasminogen in the presence of increasing concentrations of the lysine analog tranexamic acid; binding without tranexamic acid set to 100%

| Substance | response (Absorbance at 490 nm) ([1]; parent: est. 0.78) | response (Absorbance at 490 nm) ([1]; parent: est. 0.72) | further results |
| --- | --- | --- | --- |
| His6-tagged CbiA of B. miyamotoi R145A | 0.66 |  |  |
| His6-tagged CbiA of B. miyamotoi K153A; K154A; K162A; K188A |  | 1 |  |
| His6-tagged CbiA of B. miyamotoi R163A | 0.74 |  |  |
| His6-tagged CbiA of B. miyamotoi K154A; K162A; K188A |  | 1 |  |
| Human glu-plasminogen (natural protein) |  |  | percent of binding at 250 mM NaBr (without NaBr = 100%) [2]: 43%; pKd [3]: 6.46; percent decrease of binding with 0.1 mM tranexamic acid [4]: > 17%; percent of binding at 10 mM tranexamic acid (without tranexamic acid = 100%) [4]: 48% |
| His6-tagged CbiA of B. miyamotoi K153A |  | 1.1 |  |
| His6-tagged CbiA of B. miyamotoi K188A |  | 0.81 |  |
| His6-tagged CbiA of B. miyamotoi K162A |  | 1 |  |
| His6-tagged CbiA of B. miyamotoi K154A |  | 0.83 |  |
| His6-tagged CbiA of B. miyamotoi K154A; R156A | 0.58 |  |  |
| His6-tagged CbiA of B. miyamotoi R156A | 0.6 |  |  |
| His6-tagged CbiA of B. miyamotoi R185A | 0.81 |  |  |
| His6-tagged CbiA of B. miyamotoi K154A; K162A |  | 0.9 |  |
